According to patent US20160348147:

Tests used:
[1] = target: T1, A4 construct M(YPSDGRGQ)40YGDGQVPMSMRGGDEGQQDDEEGY
T1 chain: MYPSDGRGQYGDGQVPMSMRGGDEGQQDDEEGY

[2] = target: T2, ELP-substrate fusion M(GVGVP)60GDGQVPMSMRGGDDEGQQDDEEGY
T2 chain: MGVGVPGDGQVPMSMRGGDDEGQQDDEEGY

[3] = target: T3, MSKGPGWGVG(VPGVG)60GDGQVPMSMRGGDDEGQQDDEE(VPGAGVPGGG)30YG fusion polypeptide
T3 chain: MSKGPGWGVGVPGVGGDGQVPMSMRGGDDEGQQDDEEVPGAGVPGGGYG

B1: Human MMP-1 catalytic domain (recombinant, produced in E. coli, 19.9 kDa) (protein)
chain: FVLTEGNPRWEQTHLTYRIENYTPDLPRADVDHAIEKAFQLWSNVTPLTFTKVSEGQADIMISFVRGDHRDNSPFDGPGGNLAHAFQPGPGIGGDAHFDEDERWTNNFREYNLHRVAAHELGHSLGLSHSTDIGALMYPSYTFSGDVQLAQDDIDGIQAIYGRSQNPVQP
transition temperature of 25 µM A4 before and after incubation with 25 ng/mL MMP-1 at 37 C [1]: a change in transition temperature of A4 construct at 25 µM prior to (solid line) and after (dashed line) incubation with 25 ng/mL of MMP-1 enzyme | catalytic constant (kcat) from Lineweaver-Burke plot, SDS-PAGE densitometry, 20 ng/mL enzyme, 40 C [2]: 8.0 ± 1.9 s⁻¹ | mass spectrometry of the polypeptide before and after incubation with 100 ng/mL MMP-1 for 2 h at 25 C [2]: most of the 1.8 kDa MMP-sensitive peptide is cleaved off the 25.4 kDa ELP | optical density at 350 nm and DLS particle size after 12 h with 100 ng/mL MMP-1 at 40 C [2]: the optical density of the solution shows a dramatic increase as the solution is heated above the CMT to 45 °C | optical density versus temperature before and after incubation with MMP-1 [3]: Incubation of these micelles with MMP-1 enzyme is shown to result in drastic changes in optical densities at the micelle-forming transition temperature
